The values that follow come from paper PMC3737541, “Structure-function analysis of the EF-hand protein centrin-2 for its intracellular localization and nucleotide excision repair” (Nucleic Acids Research, 2013).

For experiment [1], the target named is T1, FLAG-XPC/RAD23B-His complex (human, UniProt Q01831 1-940; P54727 1-409).
T1 construct: XPC protein, human; called full-length / intact XPC; RAD23B, one of the two mammalian homologs of S. cerevisiae RAD23; also called XPC/RAD23B complex; control heterodimer
T1 sequence (looked up) 1: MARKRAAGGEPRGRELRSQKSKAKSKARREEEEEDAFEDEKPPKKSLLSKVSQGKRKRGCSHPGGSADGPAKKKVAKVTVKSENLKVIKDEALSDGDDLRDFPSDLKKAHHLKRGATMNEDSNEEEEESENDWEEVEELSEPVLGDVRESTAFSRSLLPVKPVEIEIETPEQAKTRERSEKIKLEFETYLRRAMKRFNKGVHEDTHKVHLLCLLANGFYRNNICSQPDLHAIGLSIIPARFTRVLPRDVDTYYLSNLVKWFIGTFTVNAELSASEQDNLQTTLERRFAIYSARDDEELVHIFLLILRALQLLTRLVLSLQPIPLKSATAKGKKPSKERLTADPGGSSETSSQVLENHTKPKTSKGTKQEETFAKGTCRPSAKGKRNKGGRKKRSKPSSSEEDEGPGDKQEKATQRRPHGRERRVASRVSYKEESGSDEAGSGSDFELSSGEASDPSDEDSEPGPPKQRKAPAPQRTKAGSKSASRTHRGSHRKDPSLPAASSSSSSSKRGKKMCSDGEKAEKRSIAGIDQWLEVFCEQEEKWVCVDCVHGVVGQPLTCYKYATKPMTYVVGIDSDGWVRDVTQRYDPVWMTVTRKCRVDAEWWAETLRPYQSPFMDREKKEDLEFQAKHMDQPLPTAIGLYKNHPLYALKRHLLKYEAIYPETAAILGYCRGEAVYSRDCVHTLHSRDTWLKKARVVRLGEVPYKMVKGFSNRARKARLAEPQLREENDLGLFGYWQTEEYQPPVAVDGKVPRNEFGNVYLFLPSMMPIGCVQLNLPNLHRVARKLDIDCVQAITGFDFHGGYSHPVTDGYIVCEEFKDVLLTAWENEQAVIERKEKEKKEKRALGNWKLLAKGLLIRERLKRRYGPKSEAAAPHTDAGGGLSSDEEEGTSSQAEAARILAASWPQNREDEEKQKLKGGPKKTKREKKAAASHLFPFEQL
T1 sequence (looked up) 2: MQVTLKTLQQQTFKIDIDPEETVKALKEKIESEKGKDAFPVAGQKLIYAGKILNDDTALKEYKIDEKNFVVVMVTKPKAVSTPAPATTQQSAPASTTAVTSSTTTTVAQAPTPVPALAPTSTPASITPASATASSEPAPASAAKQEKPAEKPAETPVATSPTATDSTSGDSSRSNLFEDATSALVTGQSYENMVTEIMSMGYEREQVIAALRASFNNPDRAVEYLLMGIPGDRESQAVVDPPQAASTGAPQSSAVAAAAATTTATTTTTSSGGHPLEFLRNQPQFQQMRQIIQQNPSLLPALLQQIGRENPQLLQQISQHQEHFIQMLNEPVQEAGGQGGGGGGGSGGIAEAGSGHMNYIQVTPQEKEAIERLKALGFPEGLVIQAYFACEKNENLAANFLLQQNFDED
Briefly: pull-down; purified GST-centrin-2 (WT, N or C) incubated with FLAG-XPC/RAD23B-His, pulled down with anti-FLAG antibody beads; immunoblot. The note with it: both partners purified. (In general: In western blotting, separated proteins are transferred to a membrane and probed.)

Experiment [2] addresses T1, FLAG-XPC/RAD23B-His complex. Briefly: pull-down; FLAG-XPC/RAD23B-His immobilised on anti-FLAG magnetic beads, incubated with centrin-2 (WT or C domain, GST removed), extensive washing, elution with FLAG peptide; reconstituted heterotrimers. The note with it: both partners purified.
Experiment [3] shares this target. Briefly: cell-based or functional assay.
Another experiment has as its target T2, FLAG-XPA (human, UniProt P23025 1-273).
T2 construct: XPA protein, human; also called purified recombinant XPA
Briefly: pull-down; FLAG-XPA (0.5 µg) immobilised on anti-DDDDK-tag magnetic beads; centrin-2 in buffer B, on ice 1 h; elution with FLAG peptide; immunoblot; no XPC/RAD23B. The settings on record: both partners purified.

Substitutions are numbered along the chain they refer to.

T2 sequence (P23025 whole entry): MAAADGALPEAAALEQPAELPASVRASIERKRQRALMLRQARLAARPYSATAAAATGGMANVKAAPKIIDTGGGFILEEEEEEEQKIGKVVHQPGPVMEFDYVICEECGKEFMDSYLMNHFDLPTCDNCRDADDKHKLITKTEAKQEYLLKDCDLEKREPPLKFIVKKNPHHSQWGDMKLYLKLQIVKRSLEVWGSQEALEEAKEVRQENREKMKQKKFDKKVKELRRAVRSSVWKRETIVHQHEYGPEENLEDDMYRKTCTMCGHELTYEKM

B1: GST-centrin-2 C domain (domain or fragment, human, UniProt P41208 94-172, looked up)
chain: TQKMSEKDTKEEILKAFKLFDDDETGKISFKNLKRVAKELGENLTDEELQEMIDEADRDGDGEVSEQEFLRIMKKTSLY
notes: centrin-2, human, carboxyl-terminal (C) domain, residues 94-172; source: E. coli BL21 (DE3), purified (GSTrap FF, HiTrap Phenyl FF); not shown: GST, N-terminal, kept
For the molecule B1, the binding result in experiment [1] was “binds”.

B2: centrin-2 C domain, detached from the GST tag (domain or fragment, human, UniProt P41208 94-172, looked up)
chain: B1 chain
notes: centrin-2, human, carboxyl-terminal (C) domain, residues 94-172; also called the C domain alone; source: E. coli BL21 (DE3), purified (GSTrap FF, HiTrap Phenyl FF), GST removed with PreScission protease; not shown: GST, N-terminal, cleaved
B2: the binding result in experiment [2] is “binds”.

B3: centrin-2 (WT), detached from the GST tag (natural protein, human, UniProt P41208 1-172, looked up)
chain: MASNFKKANMASSSQRKRMSPKPELTEEQKQEIREAFDLFDADGTGTIDVKELKVAMRALGFEPKKEEIKKMISEIDKEGTGKMNFGDFLTVMTQKMSEKDTKEEILKAFKLFDDDETGKISFKNLKRVAKELGENLTDEELQEMIDEADRDGDGEVSEQEFLRIMKKTSLY
notes: centrin-2, human, wild type; also called WT centrin-2; full-length protein; source: E. coli BL21 (DE3), purified (GSTrap FF, HiTrap Phenyl FF), GST removed with PreScission protease; not shown: GST, N-terminal, cleaved
Turning to B3, in experiment [3], the “EMSA: enhancement of the binding of XPC/RAD23B to a 180 bp DNA with a 6-4PP by centrin-2 (WT)” value was roughly 2 fold. Also, the binding result with FLAG-XPA was “binds”.

B4: centrin-2 M4 mutant, recombinant (natural protein, human, UniProt P41208 1-172, looked up)
chain: B3 chain with L112A, F113A, L133A, M145A
notes: centrin-2, human, point mutant M4 of the WT protein (intact N domain); also called M4 mutant of centrin-2; source: E. coli BL21 (DE3), purified (GSTrap FF, HiTrap Phenyl FF)
For the molecule B4, in the experiment with FLAG-XPA, the binding result is listed as “binds”.
